Marks after values point to notes of the source that are not given here. Each block holds one molecule with its values, some of them ahead of it. Ends that are not written are not given here. Peptide text beside a SMILES is read from it. * marks the point of attachment. Biotin = O=C1N[C@H]2[C@H](CS[C@H]2CCCCC(=O)*)N1
What was measured:
[1] = Plate binding of FITC-labelled heparin to immobilised biotinylated peptides; conditions: 400 ng peptide/well, 1 ug FITC-heparin, PBS; normalized to immX3 peptide binding = 100
Protocol: (§1) Effects of pH, PIP2 and size classes: Streptavidin-coated 96-well plates (G-Biosciences, St. Louis, MO) were pre-loaded with biotinylated peptides [see Example 1] at 400 ng/well, at room temperature for 60 minutes. The plate was washed with PBS buffer and then 1 ug FITC-labelled heparin or hyaluronic acid (FITC-HMW-HA) in 100 uL PBS buffer was added per well (all tests done in quadruplicate). Incubation proceeded for 90 minutes at room temperature, followed by two PBS washes. The plate was read in a standard laboratory fluorometer (488/525 nm exitation/[…]) and the counts normalized for immX3 peptide binding=100. Values statistically above background are shown in bold font. **p<0.05 versus immX3AVD.

[2] = Plate binding of FITC-labelled hyaluronic acid to immobilised biotinylated peptides; conditions: 400 ng peptide/well, 1 ug FITC-HMW-HA, PBS; normalized to immX3 peptide binding = 100
Protocol: as §1

[3] = PIP-binding membrane assay (Membrane Lipid Strips); set-up: key: —: −−− no binding; +++ strong binding; conditions: 400 ng peptide
[4] = system: THP1-Dual monocyte reporter cell line; test: THP1-Dual myeloid cell differentiation assay (PMA protocol); type: cell-based, human; conditions: PMA 24 h, then peptide 0.33 uM or 0.66 uM 24 h; relative to immX3AVD = 100
Outline: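 THP1-Dual monocytes were primed for 24 h with 100 ng/ml PMA, then given peptide (0.33 uM or 0.66 uM) for a further 24 h at 37 degrees C. CCL22 was measured in the supernatants. Adherent cells were stained for surface markers such as CD169, Clec9a or Clec12a with labeled anti-human antibodies.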

[5] = system: HFF-1 human fibroblast cell line; test: Collagen stimulating activity in HFF-1 dermal fibroblasts (Collagen-1 ELISA); type: cell-based; conditions: peptide 2 uM, 72 hour; control (buffer) set to 100
Protocol: Immodulin peptides have potential untility in the field of cosmetics. HFF-1 human fibroblast cell line was obtained from the American Type Culture Collection (ATCC). Cells were grown in a T-75 flask in DMEM Medium containing 10% fetal bovine serum and penicillin-streptomycin at 37° C. in a humidified, 5% CO2 incubator. Cells ([…], 2,000 cells/well) were plated in a 96-well plate and incubated overnight at 37° C. in a humidified, 5% CO2 incubator. Next day, […] of compounds were added (quadruplicate wells). After 72 hour incubation with the compound, supernatants were collected for Collagen-1 ELISA assay and cell viability was measured in a luminometer after the addition of […] CellTiterGlo reagent (Promega Inc, Madison, WI) as recommended by the manufacturer. Collagen stimulating activity of immodulin peptides in HFF-1 dermal fibroblasts: Peptides were added to cells at 2 uM. Collagen-1A1 (COL1) immunoreactivity was measured in the supernatants of cultured cells by ELISA using a rabbit monoclonal anti-COL1 primary antibody (Abcam, Cambridge, MA). Control (buffer) value of immunoreactivity was set to 100.

[6] = Plate assay: biotinylated peptide on streptavidin plates, FITC-labelled PIP2; type: binding; conditions: 400 ng peptide per well
Protocol: In the plate assay, biotinylated peptides imm3 and imm5 were bound to 96-well, streptavidin-coated plates (BioLegend corporaton, San Diego, CA) at 400 ng per well in PBS buffer at room temperature for 60 mins. Plates were washed in PBS and developed with FITC-labelled PIP2 (purchased from Cayman Chemical Co, Ann Arbor, MI). Fluorescence was counted in a laboratory fluorescence spectrophotometer. The results were as follows (EDTA background set to =100; **p<0.01 vs background control): […]

[7] = target: pure recombinant CD44 protein (Abcam); test: plate assay, pH 7.4, peptide pre-bound with 1.5 ug/well HMW-hyaluronan (CD44 capture through HA), anti-CD44 mAb/TMB detection; reference set to 100
[8] = target: pure recombinant CD44 protein (Abcam); test: plate assay, pH 5.2, peptide pre-bound with 10 ug/well HMW-hyaluronan (CD44 capture through HA), anti-CD44 mAb/TMB detection
[9] = target: pure recombinant CD44 protein (Abcam); test: plate assay, biotin-peptide on streptavidin plate, pH 7.4, no hyaluronan (CONTROL), 100 ng/well CD44, anti-CD44 mAb/TMB detection
[10] = target: pure recombinant CD44 protein (Abcam); test: plate assay, pH 7.4, peptide pre-bound with 10 ug/well LMW-hyaluronan (CD44 capture through HA), anti-CD44 mAb/TMB detection
[11] = target: pure recombinant CD44 protein (Abcam); test: plate assay, pH 5.2, peptide pre-bound with 10 ug/well LMW-hyaluronan (CD44 capture through HA), anti-CD44 mAb/TMB detection
[12] = target: pure recombinant CD44 protein (Abcam); test: plate assay, pH 5.2, peptide pre-bound with 1.5 ug/well HMW-hyaluronan (CD44 capture through HA), anti-CD44 mAb/TMB detection; reference set to 100
[13] = target: pure recombinant CD44 protein (Abcam); test: plate assay, biotin-peptide on streptavidin plate, pH 5.2, no hyaluronan (CONTROL), 100 ng/well CD44, anti-CD44 mAb/TMB detection
[14] = target: pure recombinant CD44 protein (Abcam); test: plate assay, pH 7.4, peptide pre-bound with 10 ug/well HMW-hyaluronan (CD44 capture through HA), anti-CD44 mAb/TMB detection
[15] = target: pure recombinant CD44 protein (Abcam); test: plate assay, pH 5.2, peptide + 10 ug/well holotransferrin + 10 ug/well HMW-hyaluronan (CD44 capture through HA), anti-CD44 mAb/TMB detection
[16] = target: pure recombinant CD44 protein (Abcam); test: plate assay, pH 7.4, peptide + 10 ug/well holotransferrin + 1.5 ug/well HMW-hyaluronan (CD44 capture through HA), anti-CD44 mAb/TMB detection
[17] = target: pure recombinant CD44 protein (Abcam); test: plate assay, pH 5.2, peptide + 10 ug/well holotransferrin, no hyaluronan (CONTROL), 100 ng/well CD44, anti-CD44 mAb/TMB detection
[18] = target: pure recombinant CD44 protein (Abcam); test: plate assay, pH 7.4, peptide + 10 ug/well holotransferrin, no hyaluronan (CONTROL), 100 ng/well CD44, anti-CD44 mAb/TMB detection
[19] = target: pure recombinant CD44 protein (Abcam); test: plate assay, pH 7.4, peptide + 10 ug/well holotransferrin + 10 ug/well LMW-hyaluronan (CD44 capture through HA), anti-CD44 mAb/TMB detection
[20] = target: pure recombinant CD44 protein (Abcam); test: plate assay, pH 7.4, peptide + 10 ug/well holotransferrin + 10 ug/well HMW-hyaluronan (CD44 capture through HA), anti-CD44 mAb/TMB detection
[21] = target: pure recombinant CD44 protein (Abcam); test: plate assay, pH 5.2, peptide + 10 ug/well holotransferrin + 10 ug/well LMW-hyaluronan (CD44 capture through HA), anti-CD44 mAb/TMB detection
[22] = target: pure recombinant CD44 protein (Abcam); test: plate assay, pH 5.2, peptide + 10 ug/well holotransferrin + 1.5 ug/well HMW-hyaluronan (CD44 capture through HA), anti-CD44 mAb/TMB detection

pure recombinant CD44 protein (Abcam), sequence (P16070 whole entry): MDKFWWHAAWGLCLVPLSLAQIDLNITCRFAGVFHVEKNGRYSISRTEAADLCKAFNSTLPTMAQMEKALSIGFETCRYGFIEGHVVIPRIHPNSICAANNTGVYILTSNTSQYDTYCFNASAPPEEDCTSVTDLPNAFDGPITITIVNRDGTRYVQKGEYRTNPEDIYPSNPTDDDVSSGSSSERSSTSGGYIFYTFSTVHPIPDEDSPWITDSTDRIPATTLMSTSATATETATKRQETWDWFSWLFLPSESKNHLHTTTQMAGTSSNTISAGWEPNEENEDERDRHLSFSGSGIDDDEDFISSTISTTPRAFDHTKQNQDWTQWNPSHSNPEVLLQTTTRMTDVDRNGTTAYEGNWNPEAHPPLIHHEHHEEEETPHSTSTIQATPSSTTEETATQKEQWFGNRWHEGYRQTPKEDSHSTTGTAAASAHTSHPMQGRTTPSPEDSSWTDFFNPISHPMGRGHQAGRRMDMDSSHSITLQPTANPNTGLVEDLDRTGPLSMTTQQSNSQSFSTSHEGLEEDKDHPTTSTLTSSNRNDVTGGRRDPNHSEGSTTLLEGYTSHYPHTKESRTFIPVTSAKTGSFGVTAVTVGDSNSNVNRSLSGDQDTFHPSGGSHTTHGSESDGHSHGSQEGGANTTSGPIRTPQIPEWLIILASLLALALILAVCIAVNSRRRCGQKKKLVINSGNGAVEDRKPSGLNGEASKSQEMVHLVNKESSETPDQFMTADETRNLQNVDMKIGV

- Heparin binding (fluorescence counts) [1]: 95.1 ± 25.7
- Hyaluronate binding (fluorescence counts) [2]: 60.0 ± 8.6**
- Binding to Phosphatidylinositol [3]: —
- Binding to PtdIns(4,5)P [PIP2] [3]: +++
Molecule: CC[C@H](C)[C@H](NC(=O)CNC(=O)[C@H](CCCNC(=N)N)NC(=O)[C@H](CCCCN)NC(=O)[C@H](CCCNC(=N)N)NC(=O)CNC(=O)[C@H](CCCNC(=N)N)NC(=O)[C@H](CO)NC(=O)[C@@H]1CCCN1C(=O)[C@H](CCCCN)NC(=O)[C@H](CS)NC(=O)[C@H](CCC(N)=O)NC(=O)[C@H](CCCCN)NC(=O)[C@H](CCCNC(=N)N)NC(=O)[C@H](CCCCN)NC(=O)[C@H](Cc1ccc(O)cc1)NC(=O)[C@H](Cc1ccccc1)NC(=O)CNC(=O)[C@H](CCCCN)NC(=O)[C@@H](N)CCCNC(=N)N)C(=O)N[C@@H](CS)C(=O)N[C@@H](Cc1c[nH]c2ccccc12)C(=O)O [imm5] (H-RKGFYKRKQCKPSRGRKRGICW-OH)
- CD169+ (AU) [4]: 36.5 ± 3.0 AU
- COL1 (Collagen-1A1 immunoreactivity in supernatant) [5]: 93
- FITC-PIP2 fluorescence, Background Control ([6]; EDTA background): 1.8 ± 0.5
- FITC-PIP2 fluorescence, Ferric Iron ([6]; with ferric iron): 23.4 ± 3.5**
- FITC-PIP2 fluorescence, Zinc ([6]; with zinc): 5.0 ± 1.2**

- CD44 immunoreactivity (AU) (AU (immX3AVD + 1.5 ug HMW-HA = 100)) [7]: 100
- CD44 immunoreactivity (AU) (AU (immX3AVD + 1.5 ug HMW-HA = 100)) [8]: 105
- CD44 immunoreactivity (AU) (AU (immX3AVD + 1.5 ug HMW-HA = 100)) [9]: 19.6
- CD44 immunoreactivity (AU) (AU (immX3AVD + 1.5 ug HMW-HA = 100)) [10]: 103
- CD44 immunoreactivity (AU) (AU (immX3AVD + 1.5 ug HMW-HA = 100)) [11]: 103
- CD44 immunoreactivity (AU) (AU (immX3AVD + 1.5 ug HMW-HA = 100)) [12]: 100
- CD44 immunoreactivity (AU) (AU (immX3AVD + 1.5 ug HMW-HA = 100)) [13]: 13.2
- CD44 immunoreactivity (AU) (AU (immX3AVD + 1.5 ug HMW-HA = 100)) [14]: 101
Molecule: Biotin-KKGFYKKKQCRPSKGRKRGFCWAVD (cysteine pairing not given here) [immX3AVD peptide (N-terminally biotinylated, bound to streptavidin-coated plate)]

- CD44 immunoreactivity (AU) (AU (immX3AVD + 1.5 ug HMW-HA = 100)) [15]: 94.8
- CD44 immunoreactivity (AU) (AU (immX3AVD + 1.5 ug HMW-HA = 100)) [16]: 98.3
- CD44 immunoreactivity (AU) (AU (immX3AVD + 1.5 ug HMW-HA = 100)) [17]: 12
- CD44 immunoreactivity (AU) (AU (immX3AVD + 1.5 ug HMW-HA = 100)) [18]: 3.1
- CD44 immunoreactivity (AU) (AU (immX3AVD + 1.5 ug HMW-HA = 100)) [19]: 38.7
- CD44 immunoreactivity (AU) (AU (immX3AVD + 1.5 ug HMW-HA = 100)) [20]: 107
- CD44 immunoreactivity (AU) (AU (immX3AVD + 1.5 ug HMW-HA = 100)) [21]: 27.4
- CD44 immunoreactivity (AU) (AU (immX3AVD + 1.5 ug HMW-HA = 100)) [22]: 103
B1: immX3AVD + holoTf (immX3AVD peptide incubated with 10 ug/well holotransferrin) (peptide, part only; not given: holotransferrin, not shown: large carriers)
peptide: Biotin-KKGFYKKKQCRPSKGRKRGFCWAVD
modifications: cysteine pairing not given here; also: non-covalent mixture/complex with holotransferrin, stoichiometry not given here

From patent publication US20240034761A1, “REGENERATION OF MAMMALIAN TISSUES USING SYNTHETIC IMMODULINS” (priority 2022, published 2024)
